Data published in US20200270125A1 (OMEROS, published 2020).
Changes are numbered by the printed parent chain.

T1: recombinant human MASP-1A (S646A, CCP1-CCP2-SP fragment) (human, UniProt P48740 298-699, limits assumed)
T1 chain: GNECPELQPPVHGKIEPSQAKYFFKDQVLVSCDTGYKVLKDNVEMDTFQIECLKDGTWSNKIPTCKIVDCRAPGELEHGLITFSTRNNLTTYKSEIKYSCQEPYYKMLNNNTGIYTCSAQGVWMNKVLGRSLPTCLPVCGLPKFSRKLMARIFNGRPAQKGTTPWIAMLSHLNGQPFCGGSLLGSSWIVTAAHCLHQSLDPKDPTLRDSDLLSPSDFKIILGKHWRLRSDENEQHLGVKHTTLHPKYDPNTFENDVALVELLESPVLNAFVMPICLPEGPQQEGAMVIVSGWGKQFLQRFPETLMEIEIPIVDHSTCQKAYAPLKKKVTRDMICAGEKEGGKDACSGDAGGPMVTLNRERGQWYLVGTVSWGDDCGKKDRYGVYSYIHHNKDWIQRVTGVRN

T2: human MASP-3 CCP1-CCP2-SP fragment (human)
T2 construct: limits of the assay construct are not restated; also called rMASP-3 (CCP1-CCP2-SP)
T2 chain: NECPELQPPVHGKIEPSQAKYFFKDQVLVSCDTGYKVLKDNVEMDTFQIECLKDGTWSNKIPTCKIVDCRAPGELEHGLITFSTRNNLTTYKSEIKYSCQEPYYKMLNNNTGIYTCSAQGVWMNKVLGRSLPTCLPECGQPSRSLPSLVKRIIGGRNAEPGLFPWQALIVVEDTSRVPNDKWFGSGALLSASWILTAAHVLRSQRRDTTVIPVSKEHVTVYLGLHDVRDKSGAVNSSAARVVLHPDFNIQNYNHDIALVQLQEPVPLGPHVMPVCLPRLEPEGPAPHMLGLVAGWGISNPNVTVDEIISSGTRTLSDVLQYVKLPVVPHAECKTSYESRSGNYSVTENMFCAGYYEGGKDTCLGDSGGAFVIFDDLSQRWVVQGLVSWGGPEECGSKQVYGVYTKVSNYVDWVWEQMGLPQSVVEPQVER

T3: human MASP-3 (construct not stated) (human)
T3 construct: also called MASP-3 antigen
T3 chain: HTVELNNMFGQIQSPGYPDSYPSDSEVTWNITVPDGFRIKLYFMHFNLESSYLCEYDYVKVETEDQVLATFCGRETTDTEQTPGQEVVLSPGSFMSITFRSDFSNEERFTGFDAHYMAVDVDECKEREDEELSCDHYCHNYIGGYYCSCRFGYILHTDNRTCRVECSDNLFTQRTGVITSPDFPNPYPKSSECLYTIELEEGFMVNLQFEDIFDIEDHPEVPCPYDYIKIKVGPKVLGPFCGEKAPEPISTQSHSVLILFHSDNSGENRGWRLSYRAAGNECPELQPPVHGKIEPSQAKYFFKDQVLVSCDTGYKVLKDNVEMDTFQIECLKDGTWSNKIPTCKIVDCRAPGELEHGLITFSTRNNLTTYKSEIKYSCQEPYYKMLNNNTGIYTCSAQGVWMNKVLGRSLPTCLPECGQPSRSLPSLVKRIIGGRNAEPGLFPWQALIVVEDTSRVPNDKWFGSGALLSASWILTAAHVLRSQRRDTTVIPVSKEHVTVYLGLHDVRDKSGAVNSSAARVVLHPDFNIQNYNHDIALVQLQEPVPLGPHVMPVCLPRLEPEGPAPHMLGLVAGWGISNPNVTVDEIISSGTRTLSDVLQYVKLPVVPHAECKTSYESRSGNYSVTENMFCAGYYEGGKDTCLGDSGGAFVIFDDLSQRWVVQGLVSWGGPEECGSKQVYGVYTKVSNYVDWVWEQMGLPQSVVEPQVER

T4: recombinant full-length mouse MASP-3 (mouse)
T4 construct: Entry is with leader; also called mouse full length MASP-3
T4 chain: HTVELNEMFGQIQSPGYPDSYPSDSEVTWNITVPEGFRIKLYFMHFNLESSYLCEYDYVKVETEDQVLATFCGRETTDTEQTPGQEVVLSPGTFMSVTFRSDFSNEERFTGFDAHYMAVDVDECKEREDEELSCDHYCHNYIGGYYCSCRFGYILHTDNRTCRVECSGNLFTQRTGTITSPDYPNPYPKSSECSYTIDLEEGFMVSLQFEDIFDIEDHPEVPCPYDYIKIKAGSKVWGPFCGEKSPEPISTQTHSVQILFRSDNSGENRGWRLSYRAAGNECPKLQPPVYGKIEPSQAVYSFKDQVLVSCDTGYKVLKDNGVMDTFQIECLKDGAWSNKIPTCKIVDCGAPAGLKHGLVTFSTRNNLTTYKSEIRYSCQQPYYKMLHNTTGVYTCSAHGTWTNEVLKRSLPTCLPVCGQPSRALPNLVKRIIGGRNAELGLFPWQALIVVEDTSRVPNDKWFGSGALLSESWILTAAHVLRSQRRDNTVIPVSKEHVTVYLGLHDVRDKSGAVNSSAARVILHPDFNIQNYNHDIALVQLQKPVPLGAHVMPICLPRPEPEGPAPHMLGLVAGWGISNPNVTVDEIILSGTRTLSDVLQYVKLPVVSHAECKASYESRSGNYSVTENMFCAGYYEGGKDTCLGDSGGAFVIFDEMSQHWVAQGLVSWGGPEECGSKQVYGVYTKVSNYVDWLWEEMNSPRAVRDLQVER

B1: MASP-3 mAb 2F2 (mouse-human chimeric IgG4) (antibody, V domains shown)
VH: QVQLKQSGAELVTPGASVKMSCKASGYTFTTYPIEWMKQNHGKSLEWIGNFHPYNDDTKYNEKFKGKATLTVEKSSNTVYLELSRLTSDDSAVYFCARRVYYSYFWFGYWGHGTLVTVSS
VL: DIVMTQSQKFMSTSVGDRVNVTCKASQNVGTHVAWYQQKPGQSPKALIYSASYRYSGVPDRFTGSGSGTDFTLTISNVQSEDLAEYFCQQYNSYPRALTFGAGTKLELKR
B2: MASP-3 mAb 2F5 (mouse-human chimeric IgG4) (antibody, V domains shown)
VH: EVQLQQPGAELVKPGASVKMSCKASGYTFTSYWITWVKQRPGQGLEWIGDIYPGSGSTNYNEKFKSKATLTVDTSSSTAYMQLSSLTSEDSAVYYCARRRYYATAWFAYWGQGTLVTVSS
VL: DIVMTQSQKFMSTSVGDRVSITCKASQNVGTAVAWYQQKPGQSPKLLISSASNRYTGVPDRFTGSGSGTDFTLTISNMQSEDVADYFCQQYNSYPLTFGAGTKLELKR
B3: h10D12_45-21 Fab (VH-45 and VL-21) (Fab, V domains shown)
VH: QIQLVQSGSELKKPGASVKVSCKASGYIFTSYGMSWVRQAPGKGLKWMGWINTYSGVPTYADDFKGRFVFSLDTSVRTPYLQISSLKAEDTAVYFCARGGEAMDYWGQGTLVTVSS
VL: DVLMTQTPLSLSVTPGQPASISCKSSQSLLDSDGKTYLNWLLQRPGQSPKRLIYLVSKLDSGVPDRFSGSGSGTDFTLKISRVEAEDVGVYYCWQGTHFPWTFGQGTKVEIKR
notes: Humanized monovalent Fab; also called h10D12_45-21 parental Fab
B4: h10D12_49-21 Fab (VH-49 and VL-21) (Fab, V domains shown)
VH: B3 VH with V93T
VL: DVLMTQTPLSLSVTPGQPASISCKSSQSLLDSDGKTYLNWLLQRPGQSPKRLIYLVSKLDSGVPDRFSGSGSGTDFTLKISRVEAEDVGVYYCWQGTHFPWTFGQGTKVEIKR
notes: Humanized monovalent Fab
B5: h4D5_19-1 Fab (VH-19 and VL-1) (Fab, V domains shown)
VH: QVQLVQSGAEVKKPGASVKVSCKASGYTFTTDDINWVRQAPGQGLEWIGWIYPRDDRTKYNDKFKDRATLTVDTSSNTAYMELSSLRSEDTAVYYCSSLEDTYWGQGTLVTVSS
VL: DIVMTQSPDSLAVSLGERATINCKSSQSLLNSRTRKNYLAWYQQKPGQPPKLLIYWASTRESGVPDRFSGSGSGTDFTLTISSLQAEDVAVYYCKQSYNLYTFGQGTKVEIKR
notes: Humanized monovalent Fab; also called h4D5_19-1 parental Fab
B6: h13B1_10-1 Fab (VH-10 and VL-1) (Fab, V domains shown)
VH: QVQLVQSGAEVKKPGASVKVSCKASGYTFTGKWIEWVRQAPGQGLEWIGEILPGTGSTNYNEKFKGRATFTADSSTSTAYMELSSLRSEDTAVYYCLRSEDVWGQGTLVTVSS
VL: B5 VL with L100I, Y101P
notes: Humanized monovalent Fab; also called h13B1_10-1 parental Fab
B7: h13B1_9-1 Fab (VH-9 and VL-1) (Fab, V domains shown)
VH: B6 VH with N61A, E62Q, K65Q
VL: B5 VL with L100I, Y101P
notes: Humanized monovalent Fab
B8: h4D5_14-1 Fab (VH-14 and VL-1) (Fab, V domains shown)
VH: B5 VH with R67K
VL: B5 VL
notes: Humanized monovalent Fab
B9: h10D12-45-21-GA Fab (VH-45 and VL-21-GA) (Fab, V domains shown)
VH: B3 VH
VL: DVLMTQTPLSLSVTPGQPASISCKSSQSLLDSDAKTYLNWLLQRPGQSPKRLIYLVSKLDSGVPDRFSGSGSGTDFTLKISRVEAEDVGVYYCWQGTHFPWTFGQGTKVEIKR
notes: Humanized monovalent Fab; also called 10D12-GA mutant
B10: h10D12-45-21-DE Fab (VH-45 and VL-21-DE) (Fab, V domains shown)
VH: B3 VH
VL: B9 VL with D33E, A34G
notes: also called 10D12-DE mutant
B11: h13B1_10-1-NA Fab (VH-10 and VL-1-NA) (Fab, V domains shown)
VH: B6 VH
VL: B5 VL with N31A, L100I, Y101P
notes: Humanized monovalent Fab; also called 13B1-NA
B12: h13B1_10-1-NQ Fab (VH-10 and VL-1-NQ) (Fab, V domains shown)
VH: B6 VH
VL: B5 VL with N31Q, L100I, Y101P
notes: also called 13B1-NQ
B13: h13B1_10-1-ST Fab (VH-10 and VL-1-ST) (Fab, V domains shown)
VH: B6 VH
VL: B5 VL with S32T, L100I, Y101P
notes: also called 13B1-ST

Target: T1, recombinant human MASP-1A (S646A, …)
Assay: ELISA: recombinant MASP-1A (S646A, CCP1-CCP2-SP) coated directly on the plate, A450
Experimental: (§1) The plate was then washed (PBS-T, 0.05%) and the candidate MASP-3 antibodies were added followed by incubation for one hour at room temperature. The plate was washed (PBS-T, 0.05%) and a detection antibody was added (mouse anti-human kappa-HRP, SouthernBiotech #9230-05) for one hour at room temperature. After another wash (PBS-T, 0.05%) the plate was developed (5 minutes) with OPT EIA TMB (BD Biosciences #555214). Absorbance reading at A450 was measured using the Spectramax M5e plate reader.

Row | Binder | binding result
1 | B1 | no binding (tested: about 20 nM (log10 about 1.3))
2 | B2 | no binding (tested: about 20 nM (log10 about 1.3))

Target: T2, human MASP-3 CCP1-CCP2-SP fragment
Assay: sandwich ELISA, MASP-3 CCP1-CCP2-SP captured by αM3-259
Experimental: as §1

Row | EC50 [nM] | Binder
3 | 0.057 | B1
4 | 0.073 | B2

Target: T3, human MASP-3 (construct not stated)
Assay: not described at this place

Row | binding affinity [pM] | Binder
5 | ≤ 500 | B1
6 | ≤ 500 | B2

Target: T4, recombinant full-length mouse MASP-3
Assay: sandwich ELISA, full-length mouse MASP-3 captured by αM3-259
Experimental: as §1

Row | EC50 [nM] | Binder
7 | 0.105 | B1
8 | 0.102 | B2

Target: T3, human MASP-3 (construct not stated)
Assay: ELISA, monovalent Fab

Row | EC50 [nM] | Binder
9 | 0.108 | B3
10 | 0.115 | B4
11 | 0.079 | B5
12 | 0.097 | B6
13 | 0.101 | B7
14 | 0.085 | B8

Target: T3, human MASP-3 (construct not stated)
Assay: ELISA, monovalent Fab
Remark: another data set of the same source

Row | EC50 [nM] | Binder
15 | 0.108 | B3
16 | 0.181 | B9
17 | 0.326 | B10
18 | 0.102 | B5
19 | 0.1 | B6
20 | 0.105 | B11
21 | 0.138 | B12
22 | 0.12 | B13

These binders were tested against T5, recombinant human MASP-2 (CCP1-CCP2-SP fragment) (human, UniProt O00187 298-686, limits assumed) (assay: ELISA: recombinant MASP-2 (CCP1-CCP2-SP) coated directly on the plate, A450).
T5 construct: domain: CCP1-CCP2-SP fragment
Experimental: as §1

T5 sequence (O00187 298-686 limits assumed): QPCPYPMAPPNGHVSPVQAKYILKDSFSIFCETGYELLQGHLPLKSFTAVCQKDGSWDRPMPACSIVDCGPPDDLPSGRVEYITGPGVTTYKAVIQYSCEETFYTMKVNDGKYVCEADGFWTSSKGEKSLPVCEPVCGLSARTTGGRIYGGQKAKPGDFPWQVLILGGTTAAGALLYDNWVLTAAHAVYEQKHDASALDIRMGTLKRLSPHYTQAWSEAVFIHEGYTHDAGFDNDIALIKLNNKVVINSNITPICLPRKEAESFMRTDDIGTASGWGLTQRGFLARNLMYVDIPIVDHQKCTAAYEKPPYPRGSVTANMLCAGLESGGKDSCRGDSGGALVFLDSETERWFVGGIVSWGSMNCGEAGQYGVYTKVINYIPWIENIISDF

Row | Binder | binding result
23 | B1 | no binding (tested: about 20 nM (log10 about 1.3))
24 | B2 | no binding (tested: about 20 nM (log10 about 1.3))

Target: T3, human MASP-3 (construct not stated)
Assay: cell-based or functional assay

Row | Inhibition of Rabbit Erythrocyte Lysis (IC50 nM), 10% factor D-depleted human serum [nM] | Binder
25 | 0.8 | B1
26 | 0.9 | B2
